Data published in PMC7545097, “Mapping the native interaction surfaces of PREP1 with PBX1 by cross-linking mass-spectrometry and mutagenesis” (Scientific Reports, 2020).
Numbering of substitutions follows the chain as printed.

T1: PBX1 with substitution of both 204 and 211 residues (I204A/I211A) (human, UniProt P40424 1-430, I204A | I211A)
T1 construct: PBX1, residues 1-430; source: E. coli, purified
T1 sequence (looked up): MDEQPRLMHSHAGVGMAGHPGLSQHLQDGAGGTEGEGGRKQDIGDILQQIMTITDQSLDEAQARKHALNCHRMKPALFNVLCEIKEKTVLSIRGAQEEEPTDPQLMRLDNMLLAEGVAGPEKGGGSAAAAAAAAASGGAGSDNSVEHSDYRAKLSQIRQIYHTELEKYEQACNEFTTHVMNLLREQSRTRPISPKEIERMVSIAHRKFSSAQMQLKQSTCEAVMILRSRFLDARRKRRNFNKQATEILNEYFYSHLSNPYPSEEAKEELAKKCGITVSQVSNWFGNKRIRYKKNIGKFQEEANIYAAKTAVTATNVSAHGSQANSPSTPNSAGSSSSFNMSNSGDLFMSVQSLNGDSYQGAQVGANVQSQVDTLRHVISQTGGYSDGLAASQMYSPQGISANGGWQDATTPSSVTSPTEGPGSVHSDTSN

T2: PBX1 I204A (human, UniProt P40424 1-430, I204A)
T2 construct: PBX1, residues 1-430; source: E. coli, purified
T2 sequence (looked up): T1 sequence (looked up) with A211I

T3: PBX1 I211A (human, UniProt P40424 1-430, I211A)
T3 construct: PBX1, residues 1-430; source: E. coli, purified
T3 sequence (looked up): T1 sequence (looked up) with A204I

T4: PREP1 L69A (UniProt P55347 1-436, L69A)
T4 construct: PREP1 (PKNOX1), residues 1-436
T4 sequence (looked up): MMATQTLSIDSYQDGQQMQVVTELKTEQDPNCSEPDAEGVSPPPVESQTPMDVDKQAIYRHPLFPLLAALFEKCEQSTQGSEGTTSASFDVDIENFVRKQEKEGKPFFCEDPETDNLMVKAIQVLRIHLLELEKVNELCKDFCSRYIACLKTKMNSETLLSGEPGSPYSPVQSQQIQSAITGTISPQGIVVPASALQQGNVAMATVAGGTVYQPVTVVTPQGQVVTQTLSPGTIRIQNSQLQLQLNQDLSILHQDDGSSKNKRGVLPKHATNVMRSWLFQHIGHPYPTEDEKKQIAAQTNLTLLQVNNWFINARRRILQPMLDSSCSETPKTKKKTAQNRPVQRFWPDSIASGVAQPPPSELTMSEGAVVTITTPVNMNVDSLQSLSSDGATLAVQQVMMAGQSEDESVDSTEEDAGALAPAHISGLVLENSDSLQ

B1: PREP1_(1-436), wild-type recombinant (TR-FIA) (natural protein, UniProt P55347 1-436, looked up)
chain: T4 sequence (looked up) with A69L
notes: also called wild-type PREP1; PKNOX1; source: E. coli, purified
B2: PBX1_(1-430), wild-type recombinant (natural protein, human, UniProt P40424 1-430, looked up)
chain: T1 sequence (looked up) with A204I, A211I
notes: also called wild-type PBX1; purified recombinant human PBX1; source: E. coli, purified

Assays:
Test in all cases: time-resolved fluorescence immunoassay (TR-FIA); plate coated with monoclonal anti-PBX1; PBX1 pre-incubated with PREP1 or MEIS1 for 1 h on ice, 10 µg/mL in 1% BSA PBS, 1 h at room temperature on the plate; detected with anti-PREP1 or biotinylated anti-MEIS1/2 and Eu^3+ conjugates; normalised to the wild-type protein taken as 1
Conditions in all cases: both partners purified
[1] = target: T1, PBX1 with substitution of both 204 and …
PBX1 I204A = target: T2, PBX1 I204A
PBX1 I211A = target: T3, PBX1 I211A
PREP1 L69A = target: T4, PREP1 L69A

Binder	binding relative to wild type [1] [%]	binding relative to wild type (PBX1 I204A) [%]	binding relative to wild type (PBX1 I211A) [%]	binding result (PREP1 L69A)
B1	~50	~65	~65	–
B2	–	–	–	binds
